The text below walks through data of the supplement of paper PMC7125110.

± gives the standard error. Variants at the floor of the assay were thinned out. A value given as a limit tells only on which side of the number the result lay.

Sequences and labels used below:
B1: glmS ribozyme (parent)
chain: AUAAAAGCGCCAGAACUACAGAAAUGUAGUUGACGAGGAGGAGGUUUAUCGAAUUUUCGGCGGAUGCCUCCAAA

Variants of B1 are the subject of the first data set. Description: self-cleavage kobs at 640 uM GlcN6P; higher = faster cleavage; RNA array. Conditions: with glucosamine-6-phosphate. In outline:
(§1)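 Glucosamine-6-phosphate (40 μM to 10 mM) in HEPES/KCl/Mg(OAc)2 buffer was flowed over sequenced MiSeq chips, and tiles were imaged over ~14 h. Barcoded ribozyme variants there had been transcribed in situ by E. coli RNA polymerase and were tracked through a hybridised Cy3 probe at 37 °C. One- or two-exponential decay fits to per-tile medians, normalised to baseline and to non-cleaving reference variants, gave kobs. kcat and KM came from weighted Michaelis–Menten fits across concentrations.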
AUAAAAGCGCCAGCACUACAGAAAUGUAGUUGACGAGGAGAAGGUUUAUCGAAUUUUCGGCGGAUGCCUUCAAA [A14C G41A C70U]: the “self-cleavage kobs at 640 uM GlcN6P” value stood at 0.00173 ± 0.00026 s⁻¹.
The same measure, in the same setting: under AUAAAAGCGCCAGAACUACAGAAAUGUAGUUGACCAGGAGGAGGUUUGUCGAUUUUUCGGCGGAUGCCCCCAAA [G35C A48G A53U U69C] stands below 1e-05 s⁻¹; under AUAAAAGCACCAGAUAUACAGAAAUGUAGUUGACGAGGAGGAGGUUUAUCGAAUUUUCGGCGCAUGCUUCCAAA [G9A A15U C16A G63C C68U], below 1e-05 s⁻¹; under AUAAAAGCGCCAGACCUACAGAAAUGUAGUUUACGAGGAGGAGGUUUAUCGAAUGUUGGGCGGAUGCCGCCAAA [A15C G32U U55G C58G U69G], 0.000909 ± 0.00036 s⁻¹.
With AUAAAAGCGCCAGAACUACAGAAAUGUAGUUGACGAGGAGGAGCUUUAUCGGAGUUUCGGCGGAUGCCUCCAAA [G44C A52G U54G], the “self-cleavage kobs at 640 uM GlcN6P” value was below 1e-05 s⁻¹.
For the variant AUAAAAGGGCCAAAACUACAGAAAUGUAGUUGACGAGGAGGAGGUUUAUCGAAUUCUCGGCGGAUGCCUCCAAA [C8G G13A U56C], the “self-cleavage kobs at 640 uM GlcN6P” value is below 1e-05 s⁻¹.
The same measure, in the same setting: the result for AUAAAAGCCCCAGACCUACAGAAAUGUAGUUUACGAGGACGAGGUUUAUCGAAUUUUCGGCGGAUCCCUCCAAA [G9C A15C G32U G40C G66C] reads below 1e-05 s⁻¹.
The same measure, in the same setting: the result for AUAAAAUCACCAGAACUACAGAAAUGUAGUUGACGAGGACGAGGUUUAUCGAAUUUUCGGCGGAUGCCUCCAAA [G7U G9A G40C] reads below 1e-05 s⁻¹.
Same read-out and setting: the result for AUAAAAGCGCCAGAACUACAGAAAUGUAGUUGACGAGGAUGAGGUCUAUCGAAUGUUCGGCGGAUGCCUCCAAA [G40U U46C U55G] reads 0.000194 ± 6.6e-05 s⁻¹.
Regarding AUAAAAGCGCCAGAACUACAGAAAUGUAGUUGACGAGCAGGAGGUUUAUCGAAUUGUUGGCGGAUGCCUCCAAA [G38C U56G C58U], the “self-cleavage kobs at 640 uM GlcN6P” value is below 1e-05 s⁻¹.
AUAAAAGCGCCUGAACUACAGAAAUGUAGUUGACUAGGAGGAGGUUUAUCGAAUUUUCGGCGGAUGCCUCCAAA [A12U G35U]: the “self-cleavage kobs at 640 uM GlcN6P” value was below 1e-05 s⁻¹.
On to AUAAAAGCGCCAGAACUACAGAAAUGUAGUUUACGAGGAGGGGGUUUAUCGAAUUUUCGGCGGAUUCUUCCAAA [G32U A42G G66U C68U], for which the “self-cleavage kobs at 640 uM GlcN6P” value is below 1e-05 s⁻¹.
On the same count and under the same terms, the result for AUAAAAGCGCCAGAAUUACAGAAAUGUAGUUGACGAGGAGGAGGUUUAUCGAAUAUUCGGCGGAUGCGUCCAAA [C16U U55A C68G] reads 8.37e-05 ± 1.4e-05 s⁻¹; that for AUAAAAGCGCCAGAACUACAGAAAUGUAGUUGAGGAGGAGGAGAUUUAUCGAAUUCCCGGCGGAUGCCUCCAAA [C34G G44A U56C U57C], below 1e-05 s⁻¹; that for AUAAAAGUGCUAGAACUACAGAAAUGUAGUUGACGAGGAGGAGGUUUAUCGAAUAUUCGGCAGAUGCCUCCAAA [C8U C11U U55A G62A], below 1e-05 s⁻¹.
Same read-out and setting: under AUAAAAGCGCCAGAACUACAGAAAUGUAGUUGAAGAGGAGGAGCUUUAUCGAAUUUUUGGCGGAUGCCUCCAAA [C34A G44C C58U] stands below 1e-05 s⁻¹.
On the same count and under the same terms, the result for AUAAAAGCGCCAGAACUACAGAAAUGUAGUUGACGAGGAGCAGGUUUUUCGAAUUUUCGGCGGAUGCCUCUAAA [G41C A48U C71U] reads below 1e-05 s⁻¹; that for AUAAAAGCGCCAGAACUACAGAAAUGUAGUUGACGAGGAGUAGGUUUAUCGAUUUUUCGGCGGAUGCCGCCAAA [G41U A53U U69G], below 1e-05 s⁻¹.
For the variant AUAAAAGCGCAAGAACUACAGAAAUGUAGUUAACGAGGAGGAGGUUUAUCGAAUUUUCGGCGGAUUCCUCCAAA [C11A G32A G66U], the “self-cleavage kobs at 640 uM GlcN6P” value is below 1e-05 s⁻¹.
As for AUAAAAUCGCCAGAACUACAGAAAUGUAGUUGACUAGCAGGAGGUUUAUCGAAUUUUCGGCGGAUGCCUCCAAA [G7U G35U G38C], the “self-cleavage kobs at 640 uM GlcN6P” value was below 1e-05 s⁻¹.
On the same count and under the same terms, the result for AUAAAAGCGCCAGUACUACAGAAAUGUAGUUGACGAGGAGGAGGUGUAUCGAAUUUUCGACGGAUGCCUCAAAA [A14U U46G G60A C71A] reads below 1e-05 s⁻¹; that for AUAAAAGCGACAGAACUACAGAAAUGUAGUUGACGAGGAGGAGGUUUAUCGAAUUUUCGGCGGUUGCCGCCAAA [C10A A64U U69G], 0.000351 ± 0.00014 s⁻¹.
Consider AUAAAAGCGCCAGAACUACAGAAAUGUAGUUGACGAGGAGGAGGUUUAUCGAAUUCUCGGCGGCUGCCUCCAAA [U56C A64C], for which the “self-cleavage kobs at 640 uM GlcN6P” value is below 1e-05 s⁻¹.
For AUAAAAGCGCCAGAACUACAGAAAUGUAGUUGACGAGGCGGAAGUUUAUCGAAUUUUCGGCGGAUACCUCCAAA [A39C G43A G66A], the “self-cleavage kobs at 640 uM GlcN6P” value was below 1e-05 s⁻¹.
Same read-out and setting: the result for AUAAAAGCGCUAUGACUACAGAAAUGUAGUUGACGAGCAGGAGGUUUAUCGAAUUUUCGGCGGAUGCCUCCAAA [C11U G13U A14G G38C] reads below 1e-05 s⁻¹; that for AUAAAAGCGCGAGAACUACAGAAAUGUAGUUGAGGAGGAGGAGGUUUAUCGAAUUUUCAGCGGAUGCCUCCAAA [C11G C34G G59A], below 1e-05 s⁻¹.

Variants of B1 are the subject of another data set. As to the kind of experiment: self-cleavage kobs at 2500 uM GlcN6P; higher = faster cleavage; RNA array. The conditions noted are these: with glucosamine-6-phosphate. In outline:
as §1
As for AUAAAAGCGCCAGCACUACAGAAAUGUAGUUGACGAGGAGAAGGUUUAUCGAAUUUUCGGCGGAUGCCUUCAAA [A14C G41A C70U], the “self-cleavage kobs at 2500 uM GlcN6P” value was 0.00489 ± 0.0012 s⁻¹.
Take AUAAAAGCGCCAGAACUACAGAAAUGUAGUUGACGAGGAGGAGCUUUAUCGGAGUUUCGGCGGAUGCCUCCAAA [G44C A52G U54G]: the “self-cleavage kobs at 2500 uM GlcN6P” value was below 1e-05 s⁻¹.
With AUAAAAUCACCAGAACUACAGAAAUGUAGUUGACGAGGACGAGGUUUAUCGAAUUUUCGGCGGAUGCCUCCAAA [G7U G9A G40C], the “self-cleavage kobs at 2500 uM GlcN6P” value was below 1e-05 s⁻¹.
Regarding AUAAAAGCGCCAGAAUUACAGAAAUGUAGUUGACGAGGAGGAGGUUUAUCGAAUAUUCGGCGGAUGCGUCCAAA [C16U U55A C68G], the “self-cleavage kobs at 2500 uM GlcN6P” value stood at 3.34e-05 ± 1e-05 s⁻¹.
For the variant AUAAAAGUGCUAGAACUACAGAAAUGUAGUUGACGAGGAGGAGGUUUAUCGAAUAUUCGGCAGAUGCCUCCAAA [C8U C11U U55A G62A], the “self-cleavage kobs at 2500 uM GlcN6P” value was below 1e-05 s⁻¹.
With AUAAAAGCGCCAGAACUACAGAAAUGUAGUUGAAGAGGAGGAGCUUUAUCGAAUUUUUGGCGGAUGCCUCCAAA [C34A G44C C58U], the “self-cleavage kobs at 2500 uM GlcN6P” value is below 1e-05 s⁻¹.
For AUAAAAUCGCCAGAACUACAGAAAUGUAGUUGACUAGCAGGAGGUUUAUCGAAUUUUCGGCGGAUGCCUCCAAA [G7U G35U G38C], the “self-cleavage kobs at 2500 uM GlcN6P” value is below 1e-05 s⁻¹.
The same measure, in the same setting: the result for AUAAAAGCGCGAGAACUACAGAAAUGUAGUUGAGGAGGAGGAGGUUUAUCGAAUUUUCAGCGGAUGCCUCCAAA [C11G C34G G59A] reads below 1e-05 s⁻¹.

Another data set covers variants of B1. Description: self-cleavage kobs at 10000 uM GlcN6P; higher = faster cleavage; RNA array. Conditions: with glucosamine-6-phosphate. In short, it runs like this: as §1
Consider AUAAAAGCGCCAGCACUACAGAAAUGUAGUUGACGAGGAGAAGGUUUAUCGAAUUUUCGGCGGAUGCCUUCAAA [A14C G41A C70U], for which the “self-cleavage kobs at 10000 uM GlcN6P” value was determined as 0.0111 ± 0.0021 s⁻¹.
With AUAAAAGCGCCAGAAUUACAGAAAUGUAGUUGACGAGGAGGAGGUUUAUCGAAUAUUCGGCGGAUGCGUCCAAA [C16U U55A C68G], the “self-cleavage kobs at 10000 uM GlcN6P” value was determined as 7.42e-05 ± 1.8e-05 s⁻¹.
On the same count and under the same terms, the result for AUAAAAUCGCCAGAACUACAGAAAUGUAGUUGACUAGCAGGAGGUUUAUCGAAUUUUCGGCGGAUGCCUCCAAA [G7U G35U G38C] reads below 1e-05 s⁻¹.
